Drawing on a protein production outcome set (Wang et al. 2014), this text covers protein production for 17 sequences.
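Also: failed if final PepcDB status was selected cloned or expressed and not failed if soluble or beyond.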

The nature of this data set: label from the status in PepcDB records.
On to “MTFCFWMRDTCHQRRRADIGSANADRYWEEDMTGTPRLLESRWDDAYAQTLDEPGKLLYRSNLLGADKRITNYGGGNTSAKVLEIDPLTGEKVRVMWVKGSGGDVGTIKLDGFATLYLEKLEALKGIYKGVEDEDRMVGFLPHCTFNLNPRAASIDTPLHGFVPFDHVDHMHPDAIIAIAASKNSKELTQQIFGDDIGWLPWRRPGFQLGLDLEAFVKANPTAKGVVLESHGLFTWDDDAKACYELTLAIINKAIEWFAAETEGKTIFGGALAKSLPVAERRAIAARLMPEIRGRIGREERKLGHFDDQDAVLEFVNSKDLKPLGNLGTSCPDHFLRTKIRPLILDLDTAKPDVDALTAGLDKALEAYRADYSRYYEACRHDNSPKMRDPNPVIFLIPGVGMLSFAKDKATARIAGEFYVNAINVMRGASTVSEYQGLPEQEAFDIEYWLLEEAKLQRMPKPKSLAGRVAFVTGGAGGIGRATAERLADEGACVVLADIDEAALEAAKGDFVKRYSGDAVRTVKLDVTQEDDVISAFAEASVEFGGVDILVSNAGIASSAPVEDTTLAMWNKNIDILATGYFLVSREAFRLLRRQNLGGNIVFVASKNGLASSPNASAYCTAKAAEIHLARCLALEGAEAGIRVNTVNPDAVLRGSKIWNGEWREQRAASSKIEVTDLEEHYRKRSMLKLNVFPEDIAEAIYFLASDASAKSTGNIINVDAGNAQSFTR”, for which the protein production entry was “failed”.
As for “MTFLIPAYNEEKSIGPLIDRIKMLCPDSEIIVVDNNSSDRTSEIATSRGVRVIFEGKQGKANAMVAAFRNTRTEYAVMMDADLTYLPDDSRVLVEVLKAEGADVVLGSRLNGEKEDGAISRINTVGNHILSFTASILYSPVSDVCTGHWAFNRRAIRHILEEGLNYSGFELEAEMFSKLARAGLKIVEVPITYRKRSDEPKLSSFTDGFKIFRTLVLERLRLEHHHHHH”, the protein production entry is listed as “failed”.
The same measure for “MTFNKKEKLSITALLIILYLIPAGLEWLEFDSENLHVIAISLPIWLAFFYLGPFWLFYWTQQNKHVARLHVVAQGVLYVLMMFAGANIVSRLHSMAFPQYQFPIKEQGLSAFLWGVFIFSMTHMYLLYQRFVQEQRLRKEAQLADLTSRLNPHFLFNSLNTISALIHSSPDKADDVLHKLSDILRYSVDQQNKWVPLEHELAVCETYLTVEKARFTDNLNISWQIASSVDMRQLKVPPLLLQPLIENVMKHVKRRPIELLISVQAEQGKLIFKVKDNGKGFSEPSLNEQSKAGQGLNIVKQRVDIAGGELSLFNDTSEQGGAVCEITLPIHACV”: “failed”.
Turning to “MTFSANFSLVLPEVVLAIAALVLLVAGTFRGKVGAIFTLAAVASLIAAAATAVLGPKGVAFGGVYVADAAATYAKVAIYLSSAVAVVLGDRWLAQRGDQKFEYAVLVILAALGMGVTASAGDLISLYIGVELQSLALYVLAAMRRDDAKSSEAGLKYFVLGALSSGLLLYGSSLIYGFTGSTHFSQIALAAAHGGSHGVGLLFGLVFVICGLAFKVSAAPFHMWTPDVYEGAPTPVVGFFSAAPKLAAMMMFARVLGDAFPASEEQWRQILVIAALLSVFVGAFAGLAQSNLKRLWAYSSIANVGYALLGVAAGGEVGLQSMLIFMTLYMVDVTGFFACLQALNRDGKPMETIQDMAGLVKQRPGIALAMTAFSLSALGLPPFSGFWAKYFVFKAAMGSGDVMLQWAAVIGLVGSVVAAFYYLRLIKAMWFDDAAGAVDAPSPSARAVGFAAAIFSFPIVLVALVWLEPAAKAAAAAFGHA”, the protein production result was “failed”.
“MTFSKELREASRPIIDDIYNDGFIQDLLAGKLSNQAVRQYLRADASYLKEFTNIYAMLIPKMSSMEDVKFLVEQIEFMLEGEVEAHEVLADFINEPYEEIVKEKVWPPSGDHYIKHMYFNAFARENAAFTIAAMAPCPYVYAVIGKRAMEDPKLNKESVTSKWFQFYSTEMDELVDVFDQLMDRLTKHCSETEKKEIKENFLQSTIHERHFFNMAYINEKWEYGGNNNE”: the protein production result is “not failed”.
The same measure for “MTGGAAAAPPGRGAAFSWCLFDFANSGYPTVVATFVFSAYVTKAVAATPEAGTAAWGYAMGASGLLIALLAPIFGAVADHSGRRKPWLGLFSLLCVASTALMWTIRPDPAFLLAALVLAALSNAAFEIGGVFYNAMLPDVTTPERMGRLSGWAWGLGYAGGLACLVIALLALVQADPPPFGLDKAAAEPVRATLVLVALWFVVFGWPLFAFVPERPTGRVLALGAAARGAIDSLKGLPALFRGDPRLGWFLLARMLYTEGLNTLFAFGGIYAAGTFDMGFDQIIVFGIGLNITAGLGAFAFGWIDDWLGSPRTIVVGLIGLIGFCVAVLLVEDTAWFVGLALTMGIFFGPVQAASRTHIARVAPPDRRGELFGLFALTGKISAFAGPLAVGLATDLSGSQRLGMATVVVFLVAGLGLLVKTRAPRG”: “failed”; for “MTGPTTDADAAVPRRVLIAEDEALIRMDLAEMLREEGYEIVGEAGDGQEAVELAELHKPDLVIMDVKMPRRDGIDAASEIASKRIAPIVVLTAFSQRDLVERARDAGAMAYLVKPFSISDLIPAIELAVSRFREITALEGEVATLSERLETRKLVERAKGLLQTKHGMTEPDAFKWIQRAAMDRRTTMKRVAEVVLETLGTPKDT”: “not failed”; for “MTGSWLETLLLPFTVPFLRDAMIIALLVAVPTALLSCFLVLKGWALMGDAISHAVLPGVVLAYVAGLPLGVGAFAAGLGCALVTGYLKDNSRIKQDTVMGVVFSGMFGLGIVLHTSIRTDVHLDHILFGDMLGVGSSDLLESGLIALLVVGAIALKGRDLLLHAFDPQQARAIGLPVGLLHYGLLCLLALTIVGALKATGILLTVALLIGPGAIAFLFTRRFSSMLLAAVVISSLASVLGVYISLFLDSAPAPTIVLLLTLTFIAAFMVSRQRDRQRARGVDRPV”: “failed”.
On to “MTGTSDDEEGKWKNRSTTLRRLGRQYSPDVTPEVASRRLKQWIVGNPVLLGLLHENGWTASRRVLTPKQVEQIVRVLGEP”, for which the protein production result is “failed”.
The result for “MTGTSNIPTHGKEHKDAPALLPLPAPNPHHTHAAHPGNPSHDRPPSRGKLFIKTHGCQMNEYDSAKMADVLTTTEALELTDNPEEADIILINTCSIREKAQEKVFSQLGRWRALKTSGRDVIIGVGGCVASQEGEAIVKRAPYVDLVFGPQTLHRLPDMIRARREQNRPQVDIRFPEIEKFDHLPTPRAEGPSAFVSIMEGCSKYCSFCVVPYTRGEEVSRPFEDVLTEIAHLATQGVREINLLGQNVNAYRGAMDPGPSNNTNPAPPPYADLGLLIRAIAQFESIGRIRFTTSHPLEFSDSLVEAYRDVPQLANHLHLPVQSGSDRILSAMKRGYTALEFKSKIRKLRAVRPDISISSDFIIGFPGESDTDFQKTMQLIEDIGFDQSFSFIYSRRPGTPASNLEDHTPDEIKRTRLEHLQKHINTYAADISKRMIGTVQTVLVEGPSKKNPNELTGKTENMRPVNFPGHPRLIGQFIDVHITEALSNSLRGRVHTNLEHHHHHH” reads “not failed”; that for “MTGYGKTFALLGTCATLLGPPLSAQTGSVLSDLQNEEVQARYRAAAAERIACPRIEGDAALMAAFAKDAASKWDRAAMGCATEYGARAMEALSLPTNLIWAVATFRTDNIETHLQVLGAHLDYFEVLDKSYSAHYQGIEMATELGLRWEQARERSETLMTRIDPLVPKLTEARLLRAAYLLASTLRETPPEVQNTAVAAALEDLQIAIAENPEALDGLGPLLLGQVLAVLPEFLGGDILAAIDLLEQAHALNPTDLSVHHTLVEAYLGERETDKALALLRHAASIDPSTENPQDYADEMKYLGGLALRAGAPDLARQMAGHRSAILAAHPQLDPRKEMAALGHGGADPLTGKKPDDLN”, “failed”.
The result for “MTHETDQLYQAVQATRPLLRNITAAVERGTLREGVTVGQRAILEGLSLTPGATAPQLGAALQMKRQYISRILQEVQRAGLIERRTNPEHARSHRYWLTPRGEAIITAIRADEMAKLALFSEGFSSVELTAYHKVQLALTRFFADLAKEA” reads “not failed”; that for “MTHTTANQVIHYVDQDGNTVFDDNDSQTLDYERSVTIDEVTGEITAYGDWKAVDGDEFGSVTSSDKPGYAIDKPVVSGEKPTITNGKDGKVSDVEVTVTYTALEHHHHHH”, “not failed”.
The result for “MTHVQTMLETYPKDLGDIDRAKLIECIKACFECAQTCTACADACLSEDMVAELTKCIRTNLDCADICVATGNMLSRHTGYDANVTRAVLEACRTVCKACADECEQHASMHEHCRACAEACRRCEKACADLLGSLG” reads “failed”; that for “MTHVTLRSEFETLIDPYAPVAQVGTGFDFTEGPIWHPIDHYLLFSDMPGDVRRRWDARRGMAEVKRPSNKCNGMTYDAELNLIVCEHATSSLIRERPDGRREVLASHFGGQELNSPNDVCVHSSGAIYFSDPWYGRMPVYGVERPRQLGFQGVYRVMPGGEPKLVVDRNLFDQPNGLCFSPDERLLYVNDTVQALIRVFDVNADGTLSNARVFASSIKSELEPGLPDGMKCDQHGNVWVTAPGGVWVYSPRGELLGKVRVPELVANLAWGGPDFRTLYLTSTHSVYAIPTRVGPRHEPYMSGRRGGAGASAGPAAAAPILTDGEMRLDPQRCAMIIQDLQNDVIMDGGAFDGSGAPAHAKQQHVVENVRRLAEAARARGVAIIHVWFVVEPGAPGVTLNAPLFEGLVDSKAMVRGSWGAAPVSGLEPRPGDFVVEKMRMSAWEGTRLETILKATGRDMIINTGAWTNMSVEHTARTGADKGYFMIVPEDCCSTMNADWHSASINFAMQNVAIVTRADAVIRALGLEHHHHHH”, “failed”; that for “MTIAVTGSIATDHLMRFPGRFSEQLLPEHLHKVSLSFLVDDLVMHRGGVAGNMAFAIGVLGGEVALVGAAGADFADYRDWLKARGVNCDHVLISETAHTARFTCTTDVDMAQIASFYPGAMSEARNIKLADVVSAIGKPELVIIGANDPEAMFLHTEECRKLGLAFAADPSQQLARLSGEEIRRLVNGAAYLFTNDYEWDLLLSKTGWSEADVMAQIDLRVTTLGPKGVDLVEPDGTTIHVGVVPETSQTDPTGVGDAFRAGFLTGRSAGLGLERSAQLGSLVAVLVLESTGTQEWQWDYEAAASRLAGAYGEHAAAEIVAVLA”, “not failed”.
Take “MTIIKYIKFVVIIVIVTIVFSCSKNEAGNSEYDPSLPISLTDFFPIQGGMATRMVIEGANFGTDLSQIKVFFNQKEASILNVKNSIIYLLVPKLPGNDCIVTVKVGNQEARFTRNFQYIENYSVTTIAGQPGTNLFVEGTLAAAQFGPVQHLAIDDENNLFITERNGSDGKGTCSVLNEESGTVTFLFKASDNLNVPTVNAQTQNVYIPLDGGYTFYELNPVNQWIAKSRLVLHPSKEQQEAGMDDFEINWKHSLAFSRYDNMIYTRSYGGDLIKVDPETRVGQKIGNFFPNTDSFIVAHPTQPEILYIAYAAKHVIYTYNIETGEHKLFAGAFGQSGWNDGIATDAEFNSPRQMSLDMEGNIYIADSGNHCIRMIDKNGIVTTPIGQPGEAGYADGSPDMALLNDPRGVAVNSEGDVYIADLGNRCIRKLTLQ”: the protein production entry is “failed”.
